According to article PMC4431388, “Effect of the distal histidine on the peroxidatic activity of monomeric cytoglobin” (F1000Research, 2015):

Molecular target: the molecule itself
Assay: SEC; G75 Superdex column equilibrated with 0.1 M sodium phosphate buffer pH 7.4; absorbance at 280 nm; monomer to dimer of the recombinant protein as purified

B1: human cytoglobin, wildtype (natural protein, UniProt Q8WWM9 1-190, looked up)
chain: MEKVPGEMEIERRERSEELSEAERKAVQAMWARLYANCEDVGVAILVRFFVNFPSAKQYFSQFKHMEDPLEMERSPQLRKHACRVMGALNTVVENLHDPDKVSSVLALVGKAHALKHKVEPVYFKILSGVILEVVAEEFASDFPPETQRAWAKLRGLIYSHVTAAYKEVGWVQQVPNATTPPATLPSSGP
notes: cytoglobin, human; gene bought from OriGene and transferred into pET28a; monomer runs at 21 kDa; Haem protein; The preparation holds monomer, dimer and a minor polymerised fraction; also called Cygb; WT Cygb
Q: For B1, which “stoichiometry N” value is on record?
A: The value was 2.

B2: human cytoglobin H81Y (natural protein, UniProt Q8WWM9 1-190, looked up)
chain: MEKVPGEMEIERRERSEELSEAERKAVQAMWARLYANCEDVGVAILVRFFVNFPSAKQYFSQFKHMEDPLEMERSPQLRKYACRVMGALNTVVENLHDPDKVSSVLALVGKAHALKHKVEPVYFKILSGVILEVVAEEFASDFPPETQRAWAKLRGLIYSHVTAAYKEVGWVQQVPNATTPPATLPSSGP
notes: cytoglobin, human, distal histidine mutant; Haem protein; also called H81Y Cygb; histidine 81 to tyrosine mutation
Q: Does B2 bind?
A: Result: binds

B3: human cytoglobin H81V (natural protein, UniProt Q8WWM9 1-190, looked up)
chain: MEKVPGEMEIERRERSEELSEAERKAVQAMWARLYANCEDVGVAILVRFFVNFPSAKQYFSQFKHMEDPLEMERSPQLRKVACRVMGALNTVVENLHDPDKVSSVLALVGKAHALKHKVEPVYFKILSGVILEVVAEEFASDFPPETQRAWAKLRGLIYSHVTAAYKEVGWVQQVPNATTPPATLPSSGP
notes: cytoglobin, human, distal histidine mutant; Haem protein; also called H81V Cygb; histidine 81(E7) to valine mutation
Q: Does B3 bind?
A: Result: binds
